In test [1] the target is mouse PD-L1 (construct not stated) (mouse, UniProt Q9EP73 19-238, limits assumed). Nature of the test: SPR (Biacore).
For test [2], the target named is T1, human PD1 expressed on HEK293F cells (human, UniProt Q15116 25-288).
T1 construct: whole, on cells
Nature of the test: flow cytometry on transfected HEK293F cells.

In test [3] the target is T2, human CTLA4 expressed on HEK293F cells (human, UniProt P16410 36-223).
T2 construct: whole, on cells
The test is described as follows: flow cytometry on transfected HEK293F cells. In general terms: A flow cytometer gives signals particle by particle.

The target of test [4] is T3, human LAG3 expressed on HEK293F cells (human, UniProt P18627 23-525).
T3 construct: whole, on cells
T3 sequence (looked up): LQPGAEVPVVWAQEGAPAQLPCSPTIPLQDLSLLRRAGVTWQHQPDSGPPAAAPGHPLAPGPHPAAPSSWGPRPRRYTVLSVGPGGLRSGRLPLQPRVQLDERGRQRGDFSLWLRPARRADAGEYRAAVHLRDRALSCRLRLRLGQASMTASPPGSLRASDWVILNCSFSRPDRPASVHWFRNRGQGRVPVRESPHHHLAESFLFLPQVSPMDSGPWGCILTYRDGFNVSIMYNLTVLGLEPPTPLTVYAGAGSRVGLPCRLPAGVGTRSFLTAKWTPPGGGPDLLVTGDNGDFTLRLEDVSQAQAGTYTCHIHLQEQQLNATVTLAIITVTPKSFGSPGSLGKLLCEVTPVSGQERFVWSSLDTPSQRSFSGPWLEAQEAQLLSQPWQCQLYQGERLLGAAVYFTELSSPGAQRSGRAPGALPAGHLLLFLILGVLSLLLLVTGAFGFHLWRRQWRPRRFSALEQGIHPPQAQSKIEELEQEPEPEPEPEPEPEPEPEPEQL
Nature of the test: flow cytometry on transfected HEK293F cells.

For test [5], the target named is T4, human TIM3 expressed on HEK293F cells (human, UniProt Q8TDQ0 22-301).
T4 construct: whole, on cells
Nature of the test: flow cytometry on transfected HEK293F cells.

Test [6] concerns the target T5, human B7-H3 expressed on HEK293F cells (human, UniProt Q5ZPR3 29-534).
T5 construct: whole, on cells
T5 sequence (looked up): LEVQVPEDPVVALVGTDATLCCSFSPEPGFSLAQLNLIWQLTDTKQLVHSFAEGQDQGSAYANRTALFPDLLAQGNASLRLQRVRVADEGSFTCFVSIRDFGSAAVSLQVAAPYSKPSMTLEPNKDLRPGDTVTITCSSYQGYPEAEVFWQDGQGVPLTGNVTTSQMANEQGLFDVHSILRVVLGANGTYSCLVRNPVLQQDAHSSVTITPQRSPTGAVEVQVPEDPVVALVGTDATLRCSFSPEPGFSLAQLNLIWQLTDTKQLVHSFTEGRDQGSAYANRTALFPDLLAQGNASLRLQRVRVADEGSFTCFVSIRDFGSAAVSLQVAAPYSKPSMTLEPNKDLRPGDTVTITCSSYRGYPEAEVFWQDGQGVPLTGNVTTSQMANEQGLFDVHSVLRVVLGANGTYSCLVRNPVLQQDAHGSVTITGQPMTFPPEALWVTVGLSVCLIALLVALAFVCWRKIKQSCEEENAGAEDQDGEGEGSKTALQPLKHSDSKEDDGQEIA
The test is described as follows: flow cytometry on transfected HEK293F cells.

Test [7] concerns the target T6, rhesus PD-L1 expressed on HEK293F cells (rhesus, UniProt F6VEW6 19-290).
T6 construct: whole, on cells
The test is described as follows: flow cytometry on transfected HEK293F cells, 100 nM antibody.

Test [8] has as its target T7, human PD-L1-His6 (Sino Biological #10084-H08H) (human, UniProt Q9NZQ7 19-239).
T7 construct: bought; not shown: His6 tag
The test is described as follows: SPR (Biacore T200), antibody captured by anti-human Fc, PD-L1-His6 in solution. (SPR reads the build-up and loss of mass on a sensor chip optically.)

In test [9] the target is T8, human PD-L1-Fc fusion protein (Sino Biological Cat #10084-H02H) (human, UniProt Q9NZQ7 19-239).
T8 construct: bought; not shown: Fc part of the bought fusion
T8 sequence (Q9NZQ7 19-239 limits assumed): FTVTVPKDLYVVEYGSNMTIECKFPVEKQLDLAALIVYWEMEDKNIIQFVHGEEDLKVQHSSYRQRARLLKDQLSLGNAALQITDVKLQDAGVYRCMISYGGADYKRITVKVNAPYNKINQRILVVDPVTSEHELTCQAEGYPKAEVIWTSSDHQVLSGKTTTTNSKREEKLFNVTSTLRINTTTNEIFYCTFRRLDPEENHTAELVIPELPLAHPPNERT
Nature of the test: competition ELISA, PD1-Fc (1 ug/mL) coated, biotinylated PD-L1-Fc mixed with antibody, HRP neutravidin; blocked ligand PD1-Fc.

The target in test [10] is T9, human PD-L1 expressed on cell surface (human, UniProt Q9NZQ7 19-290).
T9 construct: whole, on cells; also called full-length human PD-L1; cell surface PD-L1
T9 sequence (Q9NZQ7 19-290): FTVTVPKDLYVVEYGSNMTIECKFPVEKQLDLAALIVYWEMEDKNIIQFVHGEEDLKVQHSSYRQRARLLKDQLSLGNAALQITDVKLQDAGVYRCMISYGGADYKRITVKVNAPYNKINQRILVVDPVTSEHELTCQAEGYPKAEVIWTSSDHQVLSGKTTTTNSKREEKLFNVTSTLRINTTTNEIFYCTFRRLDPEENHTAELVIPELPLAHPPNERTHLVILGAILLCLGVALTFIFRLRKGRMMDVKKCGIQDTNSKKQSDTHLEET
Nature of the test: flow cytometry, HEK293F cells transiently expressing the target, 100 nM antibody, PE anti-human Fc; Mean (PE-A against FITC-A, GFP surrogate).

The target of test [11] is T10, mouse PD-L1 expressed on HEK293F cells (mouse, UniProt Q9EP73 19-290).
T10 construct: whole, on cells
T10 sequence (Q9EP73 19-290): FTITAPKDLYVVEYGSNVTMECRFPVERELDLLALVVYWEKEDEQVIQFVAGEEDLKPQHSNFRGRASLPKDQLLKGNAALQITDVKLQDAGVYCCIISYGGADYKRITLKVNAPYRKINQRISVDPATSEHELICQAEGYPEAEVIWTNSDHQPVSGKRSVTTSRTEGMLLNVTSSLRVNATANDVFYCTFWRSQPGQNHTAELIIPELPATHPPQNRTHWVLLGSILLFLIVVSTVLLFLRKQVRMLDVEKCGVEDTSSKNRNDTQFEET
Described as above.

In test [12] the target is T1, human PD1 expressed on HEK293F cells. The test is described as above.
The target in test [13] is T2, human CTLA4 expressed on HEK293F cells. The description is as above.
Test [14] concerns the target T3, human LAG3 expressed on HEK293F cells. Described as above.
Test [15] addresses T4, human TIM3 expressed on HEK293F cells. The test is described as above.
In test [16] the target is T9, human PD-L1 expressed on cell surface. The test is described as follows: blocking by flow cytometry, HEK293F cells expressing full-length human PD-L1, 100 nM antibody then 100 nM biotinylated PD1-His (blocked ligand), Alexa fluor 633 streptavidin; isotype control panel Q2 35.1%.
Test [17] concerns the target T6, rhesus PD-L1 expressed on HEK293F cells. Nature of the test: flow cytometry, HEK293F cells transiently expressing the target, 100 nM antibody, PE anti-human Fc; Mean (PE-A against FITC-A, GFP surrogate).
Test [18] has as its target T5, human B7-H3 expressed on HEK293F cells. Described as above.

T7 sequence (Q9NZQ7 19-239 limits assumed): as the sequence (Q9NZQ7 19-239 limits assumed) above
T2 sequence (P16410 36-223): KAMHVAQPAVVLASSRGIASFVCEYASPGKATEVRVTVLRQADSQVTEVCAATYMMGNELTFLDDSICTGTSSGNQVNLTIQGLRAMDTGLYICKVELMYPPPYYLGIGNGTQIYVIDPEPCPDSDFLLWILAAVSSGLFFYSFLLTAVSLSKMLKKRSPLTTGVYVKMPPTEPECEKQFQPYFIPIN
T1 sequence (Q15116 25-288): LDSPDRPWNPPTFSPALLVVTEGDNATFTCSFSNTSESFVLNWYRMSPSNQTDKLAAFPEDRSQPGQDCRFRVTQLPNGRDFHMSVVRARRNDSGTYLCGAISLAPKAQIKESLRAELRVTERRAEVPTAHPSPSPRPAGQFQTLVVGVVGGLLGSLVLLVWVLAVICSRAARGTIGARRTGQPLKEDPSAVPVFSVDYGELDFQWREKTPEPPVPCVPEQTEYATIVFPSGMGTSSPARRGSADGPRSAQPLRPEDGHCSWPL
Chain of mouse PD-L1 (construct not stated) (Q9EP73 19-238 limits assumed): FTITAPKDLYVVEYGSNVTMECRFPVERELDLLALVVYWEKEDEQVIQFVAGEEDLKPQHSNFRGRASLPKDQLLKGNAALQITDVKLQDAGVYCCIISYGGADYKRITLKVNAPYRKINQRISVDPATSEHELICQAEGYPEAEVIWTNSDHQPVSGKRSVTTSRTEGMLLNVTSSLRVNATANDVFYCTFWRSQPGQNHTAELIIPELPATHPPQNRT

B1: TY21418 (antibody, V domains shown)
VH: EVQLVESGGGLVQPGGSLRLSCAASGYTFSNYGIHWVRQAPGKGLEWIGWIYPSGGGTKYAQKFQGRVTISRDNSKNTLYLQLNSLRAEDTAVYYCAREGGGYGYALDYWGQGTLVTVSS
VL: DIQLTQSPSSLSASVGDRVTITCRASQGVSSYLAWYQQKPGKAPKLLIYDASNLETGVPSRFSGSGSGTDFTLTISSLQPEDFATYYCQQYDAWPYTFGQGTKVEIKR
notes: IgG1 (wild type) made from Fab B13002, from HEK293F cells
As to B1, the binding result in test [1] is “no binding”; in test [2], “no binding (tested: 100 nM)”; in test [3], “no binding (tested: 100 nM)”; in test [4] it was “no binding (tested: 100 nM)”; in test [5], “no binding (tested: 100 nM)”; in [6], “no binding (tested: 100 nM)”. Also, the binding result in [7] is recorded as “binds”. This molecule had a Kd in [8] of 0.399 nM. In [8], this molecule yielded a koff of 0.000179 s⁻¹. Besides, the kon in [8] turned out to be 448000 M⁻¹ s⁻¹. The “IC50 (read off the curve)” value in test [9] was around 6 nM. Further, the Mean in test [10] amounted to 227000; in test [11], 2470; in test [12] it was 2570; in [13], 3460; in [14], 2830; in [15], 2480. The “Q2 (percent of cells positive for GFP and for the APC signal of PD1-His, antibody present)” value in test [16] worked out at 0.29%.

B2: TY21419 (antibody, V domains shown)
VH: EVQLVESGGGLVQPGGSLRLSCAASGYTFSNYGIHWVRQAPGKGLEWIGWIYPSGGGTKYAQKFQGRVTISRDNSKNTLYLQLNSLRAEDTAVYYCAREGGGYGYALDYWGQGTLVTVSS
VL: DIQLTQSPSSLSASVGDRVTITCRASQGISPWLAWYQQKPGKAPKLLIYDASNRATGIPSRFSGSGSGTDFTLTISSLQPEDFATYYCQQYDSWPYTFGQGTKVEIKR
notes: IgG1 (wild type) made from Fab B13004, from HEK293F cells
Turning to B2, the binding result in test [1] is reported as “no binding”; in [2] it was “no binding (tested: 100 nM)”; in test [3], “no binding (tested: 100 nM)”; in test [4] it was “no binding (tested: 100 nM)”; in test [5] it was “no binding (tested: 100 nM)”; in test [6], “no binding (tested: 100 nM)”. In addition, in test [8], the Kd was 0.465 nM. In addition, in test [8], the dissociation rate constant (koff) was found to be 0.000143 s⁻¹. In [8], the kon is 307000 M⁻¹ s⁻¹. In addition, in test [9], the “IC50 (read off the curve)” value was around 6 nM. The Mean in [10] is 219000; in test [17], 201000; in test [11], 2500; in test [12], 3110; in test [13], 2330; in test [14], 3390. In addition, the Mean in test [15] came to 2310; in test [18] it was 2380. Besides, the “Q2 (percent of cells positive for GFP and for the APC signal of PD1-His, antibody present)” value in test [16] is 0.58%.

As usually defined, the Kd is the concentration at which binding is half-saturated. The low end stands for tighter binding, the high end for weaker binding. In general, koff refers to the rate constant with which the complex falls apart. Read a high koff as a short-lived complex. For orientation: kon means the second-order rate constant of association.
